Test: soluble on expression in E. coli; label from the status in PepcDB or PDB records

| Sequence | soluble on expression in E. coli |
| --- | --- |
| MSYPWSNKNGEAASSSKTTVAPPLSPPRYEKVLDFSTLDTQRHRYEVRDQANQRAVVSSAKAESSMIDKFCKENTRIQTNPGIDLPDDYGTDAIVANAIGDQRIVNNLKCVHVTTFNAVQQMSIQVIREGRGLVVEAPTGIGKTYAFLIPAIEAALKNRQSNCFEYTKPSPSILIMASTSALVDQLFNRCELILGLQCMDNVEPIRDIKIDKLVANHPFTKGQCDIAFCTIGKLKATIECGDVCLDNLKTIILDEADKMIDNCAFGPDINWILDQLKEENLENLQSCFFSATYNKNANGTIALTVLQMRMLGEDDPWSVIICPRMSGYITQRVVRVGRGRPNDIRSHPWVIKMGIIRKLIDDDLKETGCSKDGPYNETIAIFCETVQRVTQVTMALRQLGYNFKPVCSMITKNQQLVTVNDLEFRKIHGVVCTNILARGIDVSSVKHTIIMEMSADFDTYKHRIGRVGRDGCGGKSTVLVEHHQLQGGPASNVIEQLYNFMKESKEDIPQWMQEWIVARRNNNIDSWA | not soluble |
| AVAQQLRAESDFEQLPDDVAISANIADIEEKRGFTSHFVFVIEVKTKGGSKYLIYRRYRQFHALQSKLEERFGPDSKSSALACTLPTLPAKVYVGVKQEIAEMRIPALNAYMKSLLSLPVWVLMDEDVRIFFYQSPYDSEQVP | soluble |
| MSLKITRITVYQVDLPLEHPYWLSGGRLKFELLDATLVKLETDAGITGWGEGTPWGHTYVPAHGPGIRAGIETMAPFVLGLDPRRLLDVERAMDIALPGHLYAKSPIDMACWDIAGQAAGLPIADLMGGGSRTPRPIASSVGAKSVEETRAVIDRYRQRGYVAHSVKIGGDVERDIARIRDVEDIREPGEIVLYDVNRGWTRQQALRVMRATEDLHVMFEQPGETLDDIAAIRPLHSAPVSVDECLVTLQDAARVARDGLAEVFGIKLNRVGGLTRAARMRDIALTHGIDMFVMATGGSVLADAEALHLAATIPDHACHAVWACQDMLTVDIAGGRGPRNIDGHLHLPETPGLGVHPDEDALGDPVAVYSEGHHHHHH | soluble |
| MGSDKIHHHHHHEIMTRENNDQETLKLIQENKLQAEGNIFANVSALKDQNKRFQDECHSEKKQFGIKVEETTAQNNDEVLKESAQTNHIKLGNQQNKLTHESRIMALKEGNTVTKIHVGQAQEKDRKETNFIAAVNRMIQAGRDLPETVDSLEGHTLKLRYGSDASALESDIGLCEIIVSSINRKISKLQDSCIDLSNYAIADHRMVQEMQKNALGINESVRRIQSHLTQFRVSLSDNPITNSMELYKKVQTESHSLSTKINSMPVVTETNHAVAYLRKQRETLALNLPTVA | not soluble |
| MALGETKGIILFTKDFKEKDKLVKIFTESYGKLMFFVKGAHRKNNPLLPAILPFTEAVYIGNFREEGLSFLNSSKEVQPFRNIQQDIFINAYGTYILNLVDAAIEDQHYDPNLFQFTHMALSALNEQKDPEIITNIFEIQLLERFGVRPEWHHCVACGETQGKFDYSSKYSGVLCEKHWHLDEQRYHADPRAIHFIRLFSQVSYEKVQNIQVKEETKKSIRETIDMLYDEYVGLHLKSKKFIDQMKTWENTLKIPPRKKEEK | not soluble |
| MGSDKIHHHHHHMQNTDIVVIGSGIGGLSCAALLARYGFDVIVCESHSIAGGAAHGFERNGFKFDSGPSLYSGLSYSPSANPLRQVLDAIGSELPCVTYDTWGCCLPEGDFDTAVGAEQFCEVLMKFCGDDAVAEWQELQRVMEPFARAATSIPPAALRFDFGAARTVGPFVPSLTKNVANIIKLTGPFSRIMDGVVKDSFTRNWLNLLCFLLSGLPADGTSAAEVAFMFADWYRPDAILEYPIGGSSALVDSLVQGLERHGGKLMLGAHVEEVLVEGNRAVGVRLRDRSEIRAKLAVISNASVWDTLKLLPEKAIPKQYRSKRQATPECDSFMHLHLGIDAQGLQSNLRCHYIVVNNWELGVTAPQNVVVISIPSVLDPSLAPAGKHVIHVYTPGNEPYSFWQGMDRRSQEYAEQKRSRAEVMWQALERIIPDIRSRCEVTLVGTPLTHERYLRRHQGSYGPAIQAGSGMFPSPSTPLPGLMCCGDSTFPGIGLPAVAASGLIAANTLAPVNKHLAMLQDINCI | not soluble |
| MKLPISTISPIHYIKSVVSSRETRSESNKSRRTFANTEWNKIIRETLYLETIYIPLDATSHSPDIIFQLQSPVEPKVLTVGVACKGRWKSEGIGWSDIIDEAKKFLDPLYDQVLSSAMDYHHCMLIIVSTKLSLNVSNELGN | not soluble |
| MGSDKIHHHHHHMANLNDFTFFVHVVDHGGFAPAARALNLPKSTLSKRVAELEKDLGVRLINRTSRHFAVTESGKDFYRHAAAMMIEAEAAENVVRGRLAEPSGTVRITASVPTAQLSLAPLLPQLALAYPKLRVTLHATDRFVDVIQDGFDLAVRDHFAPLPDSGLVQRRIGFQAKLIVASPLYLQGNGTPERPEDLDHHDGLLTSLASEGWVMERADGSTVSVSPRPRFVADESRVLREAALAGLGITTLPGKLCQQEIESGTLIRILPEWTAGKVMTTILMPHRRGQLPSVRATVDFIAERLVDG | not soluble |
| MEALLKEAFLEALKATDPYRLTAKHLPPWRPDLVLAVGKAAAPMLQAALDRYGEVPYHLTLPKGQKAPGLKAVFARHPVPDEESVRAAEEVLGLLQGLSPRARVLALLSGGGSALWCAPLGISLEEKRALTEALLKSGASIHEMNAVRKHLSQIKGGRALLATRAKVHVLLLSDVPGDDPSVIASGPFHPDPTTYAEALALLDRYGLAFPGARAVLRQGVEGRLPETLKPQDPALRRLAWRLVGTNLHLLRAAQRFLRARGFRAAVLSDRFGGEARALARFHAELIEAIRAHGVPFRKPLFLLSGGEAQVRVVGRGRGGRNLEFLLALYAHLKTPLYALAADSDGLDGNSGAAGALLTPAVWEKGLDPRPFLEENDSLGFFQEAGTLLKTGPTGTNLNDFRLLLVD | soluble |
| FDNLTDRLSRTLRNISGRGRLTEDNVKDTLREVRMALLEADVALPVVREFINRVKEKAVGHEVNKSLTPGQEFVKIVRNELVAAMGEENQTLNLAAQPPAVVLMAGLQGAGKTTSVGKLGKFLREKHKKKVLVVSADVYRPAAIKQLETLAEQVGVDFFPSDVGQKPVDIVNAALKEAKLKFYDVLLVDTAGRLHVDEAMMDEIKQVHASINPVETLFVVDAMTGQDAANTAKAFNEALPLTGVVLTKVDGDARGGAALSIRHITGKPIKFLGVGEKTEALEPFHPDRIASRILGMGDVLSLIEDIESKVDRAQAEKLASKLKKGDGFDLNDFLEQLRQMKNMGGMASLMGKLPGMGQIPDNVKSQMDDKVLVRMEAIINSMTMKERAKPEIIKGSRKRRIAAGCGMQVQDVNRLLKQFDDMQRMMKKMK | soluble |
| MSKKFEGSVAPRERINISYVPKTDGQTAEVELPLNMLVVGDTGNTQETSSLDERQAVSVNKHNFGAVMAEAAIGLNFTVPATLKGSTTDDEMNVALNIKSLDDFSPDSVARQVPEVNKLLELREALTALKGPMGNLPAFRTQLQALLENEESREQLLKEIGQVSNK | soluble |
| MGSDKIHHHHHHMSAQTRPAPGRHTIRVSEDDCGLGQFGGGAWLSDAALWPSDPSTGRPMTPIVMLTDLFLPSVWLADDMAVTVFAALGRESDAYNRTALRTFTIHQQSELEKIDAGHSKVVLHRRAAREMVRETVMLPRHFVGLQPFDERDAEEEAEDADNGAGMSKQLGRPYWLQDPIHAHPRHYFLSQFVESDLRQQDPAYDGLFADGTGYLFAEQRAKVLREGDTAGYFFIQFT | not soluble |
| MGSDKIHHHHHHMKLSGWGRFPNVDCTVRVARSEVDVRAAVAASPLIARGNGRAYGDAALNRGLTLDMTGMDRMLSFEDGVLVAEAGVLLGDIIHTFLPRGWFPMVTPGTKYVSLGGAIAADVHGKNHHLDGSFRSCVDWVDLMGPDGAVTRVTREDDLFDWTLGGMGLTGVILRAQIRLRAVETSFIAQETRALTSLTDTLEAFEDTLDALYSVAWIDCSDGPHHGHSLLLLGRHATPGDLPKRQKPLEVKRRAKLPVPFGAPPFLFRGLWLRALNGIYWRRGAKRAGHTIVDWDSYFYPLDALANWNRLYGRNGFLQFQCALPLETAADGLAALMAEIAASQSGSVLSVLKRFGPQSGHFSFPMPGYTLALDFPANERSLALMERLDAITLAHKGRFYLAKDARMPEAVVKADARAEAFAAMRTQMGLRDRFASEQSERLGL | not soluble |

Source: the DeepSol protein solubility set
